Measurements as given in the supplement of paper PMC12042874.
± gives the uncertainty stated by the source.

Assay: amyloid nucleation score (Sup35N fusion, yeast selection) (log enrichment); library NNK3; higher = more nucleation; inactive = no reads after selection
In short: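 For the nucleation score, DiMSum gave the log enrichment of output over input reads, centred on the mode score of non-aggregating sequences. Psi-negative yeast expressing Sup35N fused to peptides of 20 random codons were induced with 100 μM copper sulfate for 24 hours and grown 7 days at 30°C on medium lacking adenine and uracil. Input and output plasmid inserts were Illumina-sequenced, and sequences with under 100 input reads were excluded.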

Substance	amyloid nucleation score
YKFGVTPWLRFILSNVRKMM	inactive
MGNYRALCLLLTWLRFLAIE	-0.015 ± 0.96
TCKCGSALK	0.384 ± 0.21
PIMAWIWWRASDPMQKRLVG	inactive
HFSSYAFLRTWTLYRHLTFM	inactive
TPCYRFNSRYRMTFM	inactive
LTGFYYFTAYVCPNLILVTR	0.878 ± 0.14
SVGHSFERKWSGCHWEISNL	inactive
ITRDDTCSVYRLVK	inactive
VLRVLLGFDKFTATISTPDG	0.323 ± 0.28
ALCKVMSKLPSISW	inactive
CGDLMPNRYTLSSSNTMSNS	inactive
HMNGEDESDNGYIHFLRRER	inactive
TNSGGFRMVIYFFR	inactive
KTASRCLYCLMKKKDCLPRV	inactive
WENCKFWRTLPISVHEGHLD	inactive
PWGEILINGR	inactive
CVVCCG	inactive
SGFDGTPFVLLSSDMFSNIG	inactive
RRKWHEYSVVMSRTNHMCIW	-0.118 ± 0.58
HLPWFRVGATDMLSYTKSLG	inactive
DFNLFKAQIYLWNSFDVSEF	0.99 ± 0.14
VIHSLLALTDLMSKSYLTIY	inactive

Substance	amyloid nucleation score
LERTNWCQYHL	inactive
FSSLLTSDWRASCLGPYVNM	inactive
YSVVDEKVALSSSWHSCLPL	inactive
ISHFTARFVSPPMQWLRTCF	inactive
SNVVSTS	inactive
ERLSMLVPYISDRYWLSDVN	inactive
CKMRVILKFIKNL	0.48 ± 0.16
KWNNCDF	inactive
VAFDIINRQNIINEWGCWID	inactive
WKEVGHGRSASPSALK	inactive
LCALP	inactive
IWSNTYPSIRSLWMSFGVVI	inactive
LMGKTHFLSVVWVVQVG	inactive
TYMCQVFNILDSQKYCYMRR	inactive
IFLNLLSRGFGLGRELKCRC	inactive
ICQQCWTVT	inactive
WIVVENW	inactive
GTQCWLILCADNLNVLGIGL	2.58 ± 0.065
PQADLVRFAMCRRAMNLVPW	inactive
HYDMNFIARVPLSQSL	inactive
GVHHDCDYCRYLDDDVKLWW	inactive
ELIAIRRSNFHKKFLLNLYC	inactive
HSDFY	inactive

Substance	amyloid nucleation score
CFAIYSLLYRVR	1.55 ± 0.074
GDSNTSRLCAPSMRNVKAQL	inactive
FFCSGS	inactive
GECPRQRVSLM	inactive
FDVELALWC	inactive
PSPLDSRLEHYRMDSTCRVV	inactive
AVPDVKSAKVDLVNFILAVC	inactive
CGGANVLYRVQYDPWRS	inactive
LYSFSANNDMVHMYRNQVRF	inactive
FTVGILFGNLHLEFGVKVND	1.6 ± 0.071
ADVDCFTVNLVYSRYAFVTT	inactive
ILIRITGAFYIMIINNRRLL	inactive
TLVCEDIVYRDLLITSFLYS	0.589 ± 0.087
HMEYLKQLFFRTVLFTDQSV	inactive
VEMGDSVRSRGYSISVFLRK	inactive
TYCERKFTTSGTSYTSQKYF	inactive
NALMKSVTFWCSAGISISRL	1.26 ± 0.11
IQMGGWIIMYSAGCGA	inactive
KASLPNR	inactive
GNWSYVENYV	inactive
SANSQYDI	inactive
RSERVRNSKLTVCVIYKYIK	inactive
STGYYVMDVYLTVAYYVDSN	inactive

Substance	amyloid nucleation score
IFYDNADTSKMNHISH	inactive
WYSNLMCTWISDDKTWQRIR	inactive
YIYDSLWW	inactive
LYLSLFGQVPYSS	-0.473 ± 0.98
SLDWCIRVITGGLRSVVRA	inactive
QPMKLRT	inactive
SSTYSGCWLVLSIKRFVLIE	inactive
IVRHVVYVSCGIQYCDHFWH	inactive
QSDRVPRILLGKRFKSPLSF	inactive
TCRITP	inactive
VWILCNRPKRRMIYLTQCRM	inactive
PVFFM	inactive
GPCFEVAVYYDATEMGKQSI	-0.507 ± 1.1
LLGVWG	0.217 ± 0.53
TIFLSSRGVILYTVSCYKFV	inactive
SAGIIFCMKSLVFSFLFITL	inactive
LGAAASSGRPMLTKYHLFWA	inactive
GWLYYQLNLDNTSVRQHWSV	0.587 ± 0.24
RYFVT	inactive
LLRVSYFIVLRTLN	inactive
ALNLVLLLCVTRRSRLSQSS	inactive
ISNLRYRSWAYLVRSFCSVL	inactive
ADFGLHRNCRRGCLGMFFL	inactive

Substance	amyloid nucleation score
SMCCCNILDLNRN	3.11 ± 0.057
VRVDDKSNCVTRRFKP	inactive
SVLYRWGYRTGWEL	0.128 ± 0.52
KCDEDCYAFDVYLSMGYDVS	inactive
VNFWMMRHAGCCKVHNKLSV	inactive
ARKLFCQTVEENHS	inactive
GEIRSKTTVLP	inactive
IFLIPYA	inactive
EEVAGSTYIISSVVVYSRAG	1.57 ± 0.14
MLELLTFTDFLGTTDITRNS	-0.113 ± 0.39
MQLDLMCCLVSCTMNTFSSR	1.54 ± 0.11
LVVIDTIIHCLFKTAQCAWF	inactive
DWYIVRMARCG	0.984 ± 0.12
YSKFFTENVYNSISGAMPHF	inactive
ILVHTHLSTLSIRHTASPMT	inactive
IKMGVRYGRNTVWTARCGSG	0.222 ± 0.6
GAMNVESLSMFMRVYYVPYR	inactive
VTSYYSHISYVTL	inactive
HFNCRYNAGCDGVLVFDVLL	inactive
GNVILCFMLNYSMISGNDM	0.956 ± 0.17
LILYIVAISCSSARSLLRVG	inactive
FCGKLSCCFIRLAELFLVGK	inactive
FYLCKRMNGSWNTLISV	inactive

Substance	amyloid nucleation score
KYFRARYHSPSEWLWSMIDW	inactive
LSRCMWDSDMYRGERYGRRR	inactive
VIVELVCLVMFNVWVGKGLW	-0.054 ± 0.31
RNSSYYLMASVDCVRFH	inactive
TKRCKYCTKGNVQTHTWVAF	0.466 ± 0.23
QIKKAINHHKYFW	inactive
FNVTGFSIIGKFIHDWFFLL	inactive
IKLVIANCNYMMYVEMV	inactive
SFVHGKLILKFRSVNASRQS	inactive
GFLLFLAVWRDTIGIVLVVL	inactive
AIRLYLDGIHQMHYYHTLCL	inactive
TSTNNSRKYSSQRRWMHPLG	inactive
DPTIVIGDQPIRLRPSVCQM	inactive
IMMFIPWTSYLKYRIIMDYS	inactive
IFNQLDLFCDRTLDGLRDAK	inactive
RVRQTFCIW	1.75 ± 0.11
VRHNLLGCLLGSFLGASSNR	-0.306 ± 0.37
VMDGFHKHIFFVVCTSRHNF	0.271 ± 0.77
INWIWAYI	inactive
CVASR	inactive
IGVYWVLPPGFFGWQNTLMI	0.161 ± 0.56
GYQLLNHLHAYTAGTNNLRL	inactive
TDELYWLKDFLYGFYNMKSP	inactive

Substance	amyloid nucleation score
YNSFEFGVMSAL	inactive
LWVTM	1.37 ± 0.14
RLSGNADYNNWTF	0.436 ± 0.67
YCKSPVSANMHMNNGNTGSC	inactive
ARPNGTTKCVDNGRKPVRII	inactive
WTIAVMVSVGKYMTGTAT	inactive
KNWYKVMSRYYKC	0.338 ± 0.38
MLSDSLHHSSNIVTLVTRGS	inactive
LVISNIFRPHSVPWIIVENS	inactive
SWFSVLLGLRTSRVIANSTY	inactive
MRFSKGNYLYMREGHKGFCG	inactive
RDSVNFTSNCCSVGFNTFNS	2.67 ± 0.053
YFGFIVKISYTVLFGLGSKC	inactive
NRTMLFEEKYVG	inactive
YRDFSEGSFPLIRVLMGMVG	inactive
IIITVVGSCYSV	1.7 ± 0.071
FLCMMTVVYQFVWMMMQGAV	inactive
IYMSRKSLVMDVWQRHRDKE	inactive
MKDMSFTYLLFKSHCAWVSL	inactive
YIRIDTGLLCVCGLSQEGVV	inactive
RWCVM	0.14 ± 0.56
